Measured values reported in paper PMC11658694, “Acetylation of the yeast Hsp40 chaperone protein Ydj1 fine-tunes proteostasis and translational fidelity” (PLOS Genetics, 2024).
Positions count from the first letter of the chain named.

B1: His-tagged Ydj1 6KR (natural protein, S. cerevisiae (budding yeast), UniProt P25491 1-409, looked up)
chain: MVKETKFYDILGVPVTATDVEIRRAYRKCALRYHPDRNPSEEAAERFREASAAYEILSDPEKRDIYDQFGEDGLSGAGGAGGFPGGGFGFGDDIFSQFFGAGGAQRPRGPQRGKDIKHEISASLEELYKGRTAKLALNKQILCKECEGRGGKKGAVKKCTSCNGQGIKFVTRQMGPMIQRFQTECDVCHGTGDIIDPKDRCKSCNGKKVENERKILEVHVEPGMKDGQRIVFKGEADQAPDVIPGDVVFIVSERPHKSFKRDGDDLVYEAEIDLLTAIAGGEFALEHVSGDWLKVGIVPGEVIAPGMRKVIEGKGMPIPKYGGYGNLIIKFTIKFPENHFTSEENLKKLEEILPPRIVPAIPKKATVDECVLADFDPAKYNRTRASRGGANYDSDEEEQGGEGVQCASQ
modifications: biotin (labelled with a 1.5-fold excess of NHS-PEG4-Biotin, for BLI)
B2: His-tagged Ydj1 wild-type (natural protein, S. cerevisiae (budding yeast), UniProt P25491 1-409, looked up)
chain: B1 chain with R23K, R24K, R32K, R37K, R46K, R48K
modifications: biotin (labelled with a 1.5-fold excess of NHS-PEG4-Biotin, for BLI)
notes: Ydj1, yeast Hsp40; YDJ1 gene amplified from yeast genomic DNA, in pRSETA; Methods: 6xHIS-TEV-Ydj1 fusion; A TEV site lies between tag and Ydj1; A fragment lacking the J-domain co-purifies; also called HIS-Ydj1; Ydj1-biotin; source: E. coli Rosetta (DE3), purified (Ni-sepharose, Superdex 200); not shown: His6, N-terminal, kept
B3: His-tagged Ydj1 K37R (natural protein, S. cerevisiae (budding yeast), UniProt P25491 1-409, looked up)
chain: B1 chain with R23K, R24K, R32K, R46K, R48K
modifications: biotin (labelled with a 1.5-fold excess of NHS-PEG4-Biotin, for BLI)
B4: His-tagged Ydj1 K23R (natural protein, S. cerevisiae (budding yeast), UniProt P25491 1-409, looked up)
chain: B1 chain with R24K, R32K, R37K, R46K, R48K
modifications: biotin (labelled with a 1.5-fold excess of NHS-PEG4-Biotin, for BLI)
notes: Ydj1, yeast Hsp40; Tag end: see m28; source: E. coli Rosetta (DE3), purified (Ni-sepharose, Superdex 200); not shown: His6, N-terminal, kept
B5: His-tagged Ydj1 K23Q (natural protein, S. cerevisiae (budding yeast), UniProt P25491 1-409, looked up)
chain: B1 chain with R23Q, R24K, R32K, R37K, R46K, R48K
modifications: biotin (labelled with a 1.5-fold excess of NHS-PEG4-Biotin, for BLI)
notes: as for B4

What was measured:
[1] = target: T1, Ssa1 (purified) (S. cerevisiae (budding yeast), UniProt P10591 1-642); experiment: cell-based or functional assay
T1 sequence (P10591 whole entry): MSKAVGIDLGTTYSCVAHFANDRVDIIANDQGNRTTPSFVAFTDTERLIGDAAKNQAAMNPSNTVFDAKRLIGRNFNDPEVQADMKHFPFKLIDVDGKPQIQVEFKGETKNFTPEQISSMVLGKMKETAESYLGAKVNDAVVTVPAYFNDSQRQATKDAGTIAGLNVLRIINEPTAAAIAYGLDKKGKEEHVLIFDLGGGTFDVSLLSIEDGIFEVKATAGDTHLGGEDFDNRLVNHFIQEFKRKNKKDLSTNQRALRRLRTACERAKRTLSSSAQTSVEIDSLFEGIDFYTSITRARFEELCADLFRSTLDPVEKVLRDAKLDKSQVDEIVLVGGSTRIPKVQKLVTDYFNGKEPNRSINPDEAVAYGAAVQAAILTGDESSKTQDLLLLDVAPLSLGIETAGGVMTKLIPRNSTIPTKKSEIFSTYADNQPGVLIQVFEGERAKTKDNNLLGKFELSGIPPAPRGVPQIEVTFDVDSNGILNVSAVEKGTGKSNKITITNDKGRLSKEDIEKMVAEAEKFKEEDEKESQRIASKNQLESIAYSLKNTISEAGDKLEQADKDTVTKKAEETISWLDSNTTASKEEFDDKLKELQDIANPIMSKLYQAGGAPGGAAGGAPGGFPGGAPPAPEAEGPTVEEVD

[2] = target: T1, Ssa1 (purified); experiment: BLI; biotinylated Ydj1 wild-type or mutant (5 μg/ml, equivalent loading) on streptavidin biosensors, Ssa1 (1 μM) in solution; Octet R4, 23°C; 25 mM Hepes pH 7.5, 50 mM KCl, 2 mM DTT, 5 mM MgCl2, 0.5 mM ATP, 0.02% Tween-20; non-specific binding subtracted; settings: both partners purified

Binder | reactivation of chemically denatured luciferase (3 μM Ssa1, 0.3 μM Ydj1), against wild-type [1] | binding result [2]
B1 | ~2 fold | –
B2 | – | binds
B3 | ~2 fold | –
B4 | – | binds
B5 | – | binds
